T1: human IL-36R extracellular domain expressed with a C-terminal mouse IgG2a Fc tag (hIL-36R-mFc) (human; mouse, UniProt Q9HB29 20-337)
T1 construct: not shown: mouse IgG2a Fc, E98-K330
T1 sequence (looked up): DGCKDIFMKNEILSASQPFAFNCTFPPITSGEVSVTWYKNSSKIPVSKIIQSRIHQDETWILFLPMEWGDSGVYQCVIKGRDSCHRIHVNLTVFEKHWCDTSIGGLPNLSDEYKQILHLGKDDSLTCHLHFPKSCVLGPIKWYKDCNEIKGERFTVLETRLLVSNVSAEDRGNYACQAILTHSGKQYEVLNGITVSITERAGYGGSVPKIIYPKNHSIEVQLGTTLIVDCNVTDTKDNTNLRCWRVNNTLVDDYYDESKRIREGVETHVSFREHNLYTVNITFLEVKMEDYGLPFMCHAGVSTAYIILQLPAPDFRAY

T2: in-line fusion protein of human IL-36R extracellular domain and IL1RAcP extracellular domain expressed with … (human; mouse, UniProt Q9HB29 20-337; Q9NPH3 21-359, limits assumed)
T2 construct: not shown: mouse IgG2a Fc
T2 sequence (looked up): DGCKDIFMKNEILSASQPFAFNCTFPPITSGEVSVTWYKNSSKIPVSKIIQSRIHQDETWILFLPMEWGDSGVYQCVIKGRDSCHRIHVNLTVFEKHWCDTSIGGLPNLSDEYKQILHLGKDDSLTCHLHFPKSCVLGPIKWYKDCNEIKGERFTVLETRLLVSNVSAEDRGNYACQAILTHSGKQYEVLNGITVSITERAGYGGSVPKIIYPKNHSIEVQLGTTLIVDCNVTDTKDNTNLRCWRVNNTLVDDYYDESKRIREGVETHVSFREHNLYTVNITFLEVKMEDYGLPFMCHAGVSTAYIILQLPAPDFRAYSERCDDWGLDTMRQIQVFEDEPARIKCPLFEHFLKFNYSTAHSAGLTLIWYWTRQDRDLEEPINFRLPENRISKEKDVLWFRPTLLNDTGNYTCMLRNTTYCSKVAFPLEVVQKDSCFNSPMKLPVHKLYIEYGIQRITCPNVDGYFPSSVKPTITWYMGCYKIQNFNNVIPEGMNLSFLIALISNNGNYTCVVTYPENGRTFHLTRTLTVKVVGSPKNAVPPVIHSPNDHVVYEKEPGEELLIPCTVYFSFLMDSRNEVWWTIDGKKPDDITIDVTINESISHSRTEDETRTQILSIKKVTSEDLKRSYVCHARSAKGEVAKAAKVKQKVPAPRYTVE


Experiments:
[1] = molecular target: T3, human IL-36R extracellular domain expressed with a C-terminal myc-myc-hexahistidine tag (hIL-36R-MMH) (human, UniProt Q9HB29 20-337); assay: SPR Biacore T200, mAb captured on anti-hFc, 25C, PBS-T pH 6.0 running buffer
T3 construct: also called Human IL-36R-MMH; REGN2105
T3 sequence (Q9HB29 other isoform, or with tags, fused parts or gaps limits assumed): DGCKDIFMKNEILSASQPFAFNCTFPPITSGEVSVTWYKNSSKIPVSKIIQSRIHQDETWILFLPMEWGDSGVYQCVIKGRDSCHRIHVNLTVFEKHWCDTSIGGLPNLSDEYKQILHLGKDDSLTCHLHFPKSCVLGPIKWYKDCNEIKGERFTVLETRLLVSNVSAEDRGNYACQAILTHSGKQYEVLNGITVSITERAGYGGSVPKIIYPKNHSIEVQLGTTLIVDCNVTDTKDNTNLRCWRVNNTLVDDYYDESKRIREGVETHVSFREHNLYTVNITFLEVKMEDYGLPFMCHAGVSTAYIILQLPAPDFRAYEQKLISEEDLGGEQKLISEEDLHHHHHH
Procedure: (§1) Additional binding experiments were performed to determine the effect of pH on the rate of dissociation of IL-36R bound to purified anti-IL-36R antibodies, which was determined using a real-time surface plasmon resonance biosensor using a Biacore T200 instrument. The Biacore sensor surface was first derivatized by amine coupling with a monoclonal mouse anti-human Fc antibody (GE, # BR-1008-39) to capture anti-IL-36R antibodies. […] Different concentrations of hIL-36R-MMH and mfIL-36R-MMH prepared in PBS-T, pH7.4 buffer (ranging from 100 nM to 11.11 nM, 3-fold dilutions) were injected over the anti-IL-36R antibody captured surface for 4 minutes at a flow rate of 50 μL/minute and their dissociation in two running buffers, PBS-T, pH7.4 and PBS-T, pH 6.0, was monitored for 10 minutes. All of these binding kinetics experiments were performed at 25° C. and 37° C. Kinetic dissociation constant (kd) were determined by fitting the real-time sensorgrams to a 1:1 binding model using Scrubber 2.0c curve fitting software. Binding dissociative half-lives (t_{1/2}) were calculated from kd as: […]

[2] = molecular target: T3, human IL-36R extracellular domain …; assay: SPR Biacore T200, mAb captured on anti-hFc, 37C, PBS-T pH 6.0 running buffer
Procedure: as §1

[3] = molecular target: T1, human IL-36R extracellular domain …; assay: SPR Biacore 4000, mAb captured on anti-hFc, 37C
Procedure: (§2) Equilibrium dissociation constants (KD values) for IL-36R binding to purified anti-IL-36R antibodies were determined using a real-time surface plasmon resonance biosensor using a Biacore 4000 instrument. The Biacore sensor surface was first derivatized by amine coupling with a monoclonal mouse anti-human Fc antibody (GE, # BR-1008-39) to capture anti-IL-36R monoclonal antibodies. All binding studies were performed in 0.01 M Hepes pH 7.4, 0.15 M NaCl, 3 mM EDTA, and 0.05% v/v Surfactant Tween-20 (HBS-ET running buffer) at 25° C. and 37° C. Different concentrations of IL-36R reagents, human IL-36R extracellular domain expressed with a C-terminal myc-myc-hexahistidine tag (hIL-36R-MMH), Macaca fascicularis IL-36R extracellular domain expressed with a C-terminal myc-myc-hexahistidine tag (mfIL-36R-MMH: mROR1 signal sequence (M1-A29). Macaca fascicularis IL36R_ecto domain (D20-A336).mycmycHis6), human IL-36R extracellular domain expressed with a C-terminal mouse IgG2a Fc tag (hIL-36R-mFc: mROR1 signal sequence (M1-A29)-human IL36R (D20-Y337)-mouse IgG2aFc (E98-K330)) or an in-line fusion protein of human IL-36R extracellular domain and IL1RAcP extracellular domain expressed with mouse IgG2a Fc tag (hIL-36R-Trap-mFc: mROR1 signal sequence (M1-A29)-human IL36R ecto domain (D20-Y337)-human IL1RacP ecto domain(S21-E359)-mouse IgG2aFc) in HBS-ET running buffer (ranging from 100 nM to 3.7 nM, 3-fold dilutions) were injected over the anti-IL-36R antibody captured surface for 4 minutes at a flow rate of 30 μL/minute and their dissociation in HBS-ET running buffer was monitored for 10 minutes. Kinetic association rate constant (kₐ) and dissociation rate constant (kd) were determined by fitting the real-time sensorgrams to a 1:1 binding model using Scrubber 2.0c curve fitting software. Binding dissociation equilibrium constants (KD) and dissociative half-lives (t_{1/2}) were calculated from the kinetic rate constants as: […]

[4] = molecular target: T2, in-line fusion protein of human IL-36R …; assay: SPR Biacore 4000, mAb captured on anti-hFc, 37C
Procedure: as §2

[5] = molecular target: T3, human IL-36R extracellular domain …; assay: SPR Biacore T200, mAb captured on anti-hFc, 25C, PBS-T pH 7.4 running buffer
Procedure: as §1

[6] = molecular target: T1, human IL-36R extracellular domain …; assay: SPR Biacore 4000, mAb captured on anti-hFc, 25C
Procedure: as §2

[7] = molecular target: T2, in-line fusion protein of human IL-36R …; assay: SPR Biacore 4000, mAb captured on anti-hFc, 25C
Procedure: as §2

[8] = molecular target: T3, human IL-36R extracellular domain …; assay: SPR Biacore T200, mAb captured on anti-hFc, 37C, PBS-T pH 7.4 running buffer
Procedure: as §1

| Binder | 100 nM Human IL-36R-MMH Bound (RU) [1] [RU] | koff [1] [s⁻¹] | t1/2 [1] [min] | 100 nM hIL-36R-MMH Bound (RU) [2] [RU] | koff [2] [s⁻¹] | t1/2 [2] [min] | 100 nM hIL-36R-mFc Bound (RU) [3] [RU] | Kd [3] [nM] | koff [3] [s⁻¹] | kon [3] [M⁻¹ s⁻¹] | t1/2 [3] [min] | 100 nM hIL-36R-Trap-mFc Bound (RU) [4] [RU] | Kd [4] [nM] | koff [4] [s⁻¹] | kon [4] [M⁻¹ s⁻¹] | t1/2 [4] [min] | 100 nM Human IL-36R-MMH Bound (RU) [5] [RU] | koff [5] [s⁻¹] | t1/2 [5] [min] | 100 nM hIL-36R-mFc Bound (RU) [6] [RU] | other results |
| --- | --- | --- | --- | --- | --- | --- | --- | --- | --- | --- | --- | --- | --- | --- | --- | --- | --- | --- | --- | --- | --- |
| H4H14709P (antibody, human IgG4 S228P, kappa, V domains shown, Fully human anti-IL-36R antibody) VH: EVQLVESGGGLVQPGGSLRLSCAASGFTFSDYAMSWVRQAPGKGLEWVSGISGNGGDTYYGDFVKGRFTISRDNSKNTLYLQMNSLRGEDTAAYFCVIDLDYWGQGTLVTVSS VL: DIQMTQSPSTLSASEGDRVTITCRASQSISSWLAWYQQKPGKAPRLLIYKASILGDGVPSRFSGSGSGTEFTLTISSLQPDDFATYYCHQYNSYLWTFGQGTKVEIKR | 99 | 0.000842 | 14 | 146 | 0.00172 | 7 | 211 | 0.205 | 0.000112 | 543000 | 104 | 257 | 0.264 | 0.000123 | 467000 | 94 | 111 | 0.00042 | 28 | 142 | Kd [6]: 0.335 nM; koff [6]: 8.62e-05 s⁻¹; kon [6]: 257000 M⁻¹ s⁻¹; t1/2 [6]: 134 min; 100 nM hIL-36R-Trap-mFc Bound (RU) [7]: 173 RU; Kd [7]: 0.404 nM; koff [7]: 8.07e-05 s⁻¹; kon [7]: 200000 M⁻¹ s⁻¹; t1/2 [7]: 143 min; 100 nM hIL-36R-MMH Bound (RU) [8]: 159 RU; koff [8]: 0.000704 s⁻¹; t1/2 [8]: 16 min |
| H4H14728P (antibody, human IgG4 S228P, kappa, V domains shown, Fully human anti-IL-36R antibody) VH: QVQLQESGPGLVKPSQTLSLTCTVSGGSISSADYYWSWIRQHPGKGLEWIGSIYYTGSTYYNPSLKSRLTISIDTSENQFSLKLTSLTAADTAVYYCASEEANWGSHFDSWGQGTLVTVSS VL: DIQMTQSPSSLSASVGDRVTITCRASQSIDNFLNWYQQKPGKAPKLLIYAASSLQSGVPSRFSGSGSGTDFTLTISSLQPEDFASYYCQHSHSAHPITFGQGTRLEIKR | 96 | 0.000887 | 13 | 114 | 0.00306 | 4 | 11 | 28.7 | 0.000465 | 16200 | 25 | 89 | 40.9 | 0.00198 | 48500 | 6 | 103 | 0.000898 | 13 | 7 | 100 nM hIL-36R-Trap-mFc Bound (RU) [7]: 63 RU; Kd [7]: 14 nM; koff [7]: 0.000565 s⁻¹; kon [7]: 40300 M⁻¹ s⁻¹; t1/2 [7]: 20 min; 100 nM hIL-36R-MMH Bound (RU) [8]: 121 RU; koff [8]: 0.00296 s⁻¹; t1/2 [8]: 4 min |

From US20200017592A1 (Regeneron, published 2020)
